What all share (experiment): cell-based or functional assay
The target of experiment [1] is T1, human cMET on cells (Hs746T, H596, EBC-1) (human, UniProt P08581 25-1390).
Experiment [2] has as its target T1, human cMET on cells (Hs746T, H596, …). This is another data set of the same source.
For experiment [3] the target is unchanged. The source holds these as a separate data set.

T1 sequence (P08581 25-1390 limits assumed): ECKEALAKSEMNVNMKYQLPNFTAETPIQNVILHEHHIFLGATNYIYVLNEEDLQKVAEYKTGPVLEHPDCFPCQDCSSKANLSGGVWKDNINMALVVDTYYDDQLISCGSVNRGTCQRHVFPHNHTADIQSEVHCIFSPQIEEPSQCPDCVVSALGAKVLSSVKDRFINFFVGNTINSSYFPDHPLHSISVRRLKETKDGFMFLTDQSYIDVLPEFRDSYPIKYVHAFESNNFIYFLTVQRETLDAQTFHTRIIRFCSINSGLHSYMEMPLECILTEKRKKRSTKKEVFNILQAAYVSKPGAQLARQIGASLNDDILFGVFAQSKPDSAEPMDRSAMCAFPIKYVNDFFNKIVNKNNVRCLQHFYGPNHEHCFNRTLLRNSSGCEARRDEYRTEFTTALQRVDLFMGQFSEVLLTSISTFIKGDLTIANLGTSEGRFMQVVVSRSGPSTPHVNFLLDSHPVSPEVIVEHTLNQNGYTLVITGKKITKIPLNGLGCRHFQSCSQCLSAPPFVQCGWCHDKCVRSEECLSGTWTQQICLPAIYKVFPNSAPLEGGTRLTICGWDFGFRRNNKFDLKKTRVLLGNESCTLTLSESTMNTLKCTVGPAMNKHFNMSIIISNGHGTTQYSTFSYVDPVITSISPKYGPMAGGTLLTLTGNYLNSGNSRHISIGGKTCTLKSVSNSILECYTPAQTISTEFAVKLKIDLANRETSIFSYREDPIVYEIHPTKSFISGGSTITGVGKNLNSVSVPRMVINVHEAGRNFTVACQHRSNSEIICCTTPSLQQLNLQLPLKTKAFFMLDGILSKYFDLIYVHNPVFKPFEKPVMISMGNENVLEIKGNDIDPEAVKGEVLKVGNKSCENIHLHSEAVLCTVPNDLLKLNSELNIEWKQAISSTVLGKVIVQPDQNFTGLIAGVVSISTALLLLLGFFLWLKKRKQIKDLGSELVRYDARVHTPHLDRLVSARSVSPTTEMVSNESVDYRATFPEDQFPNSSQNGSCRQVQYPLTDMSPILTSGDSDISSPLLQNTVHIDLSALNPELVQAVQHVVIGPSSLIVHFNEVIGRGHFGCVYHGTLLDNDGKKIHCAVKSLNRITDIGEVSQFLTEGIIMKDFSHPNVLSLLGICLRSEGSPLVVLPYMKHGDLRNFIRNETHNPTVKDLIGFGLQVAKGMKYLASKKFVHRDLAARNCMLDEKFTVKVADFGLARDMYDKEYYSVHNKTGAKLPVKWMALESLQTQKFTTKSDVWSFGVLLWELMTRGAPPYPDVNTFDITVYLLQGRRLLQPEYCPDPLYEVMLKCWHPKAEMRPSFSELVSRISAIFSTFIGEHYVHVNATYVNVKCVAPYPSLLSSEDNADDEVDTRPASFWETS

B1: 06BS03 (bispecific antibody, V domains shown)
VH 1: QVQLVESGGGVVQPGKSLRLSCAASGFTFSSSGLHWVRQAPGKGLEWVAVISYDTSNKYYADSVKGRFTISRDNSKNTLYLQMNSLRAEDTAVYYCAKDLNRGYDWGFDYWGQGTLVTVSS
VH 2: QFQLQESGPGLVKPSETLSLTCTVSGGSISTSSYYWGWIRQPPGKGLEWIGTIYYSGTTYYNPSLKSRVTISVDTSKNQFSLKLKSVTAADTSIYYCARHWPKYNSWFDPWGQGILVTVSS
VL: not shown
Turning to B1, the “IC50, inhibition of ERK phospho-T202/Y204 in Hs746T cells” value in experiment [1] amounted to 0.5 nM.

B2: 063Ab07710 (antibody, human IgG1, kappa, V domains shown)
VH: QVQLVESGGGVVQPGRSLRLSCAASGFTFSSYGMHWVRQAPGKGLEWVAVISNDGSYKYYVDSVTGRFTISRDNSKNTLYLQMNSLRAEDTAVYYCAKDRNMGYSGWFDYWGQGSLVTVSS
VL: not shown
With B2, in experiment [2], the “IC50, inhibition of HGF-induced ERK phospho-T202/Y204 in H596 cells” value is more than 250 nM.

B3: 06BS02 (bispecific antibody, V domains shown)
VH 1: QVQLVESGGGVVQPGRSLRLSCAASGFTFSSHGMHWVRQAPGKGLEWVAVISYDESDKYYADSVKGRFTISRDHSKNTLYLQMNSLRAEDTAVYYCVKDRNMGYSGWLDYWGQGTLVTVSS
VH 2: QFQLQESGPGLVKPSETLSLTCTVSGGSISTSSYYWGWIRQPPGKGLEWIGTIYFSGTTYYNPSLTSRVSMSVDTSKNQFSLKLNSVTAADTSIYYCARHWPKYNSWFDPWGQGFLVTVSS
VL: not shown
As for B3, the “Imax %, inhibition of HGF-induced ERK phospho-T202/Y204 in H596 cells” value in experiment [3] turned out to be 90%.

These data come from US20250154265A1 (BEIGENE, published 2025).
